# Assay results published in patent US20180092964A1.
# Target: VLDL receptor (VLDLR) on U937 clone 10 cells (UniProt P98155)
# Assay: cell-based or functional assay
substance,measurement,value
low endotoxin recombinant RAP (LDL Receptor-Associated Protein) (from UniProt P30533 35-357),"HIV-1 infectivity of U937 clone 10 cells preconditioned with RAP for 15 min, then with α1PI, and cultured for 8 days",93%
